Assay results from the supplement of paper PMC7877785.
± gives the uncertainty stated by the source.

Assay: self-splicing fitness, log relative to wild type (ln ratio); higher = more splicing; Tetrahymena group I intron in knt gene, E. coli kanamycin selection, DiMSum; sequences stand for … in CUCUCU…GGAGGGAAAAGUUAUCAGGCAUGCACCUGGUAGCUAGUCUUUAAACCAAUAGAUUGCAUCGGUUUAAAAGGCAAGACCGUCAAAUUGCGGGAAAGGGGUCAACAGCCGUUCAGUACCAAGUCUCAGGGGAAACUUUGAGAUGGCCUUGCAAAGGGUAUGGUAAUAAGCUGACGGACAUGGUCCUAACCACGCAGCCAAGUCCUAAGUCAACAGAUCUUCUGUUGAUAUGGAUGCAGUUCACAGACUAAAUGUCGGUCGGGGAAGAUGUAUUCUUCUCAUAAGAUAUAGUCGGACCUCUCCUUAAUGGGAGCUAGCGGAUGAAGUGAUGCAACACUGGAGCCGCUGGGAACUAAUUUGUAUGCGAAAGUAUAUUGAUUAGUUUUGGAGUACUCGUGGUCG
Method in brief: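 Fitness was computed with DiMSum as the error-weighted combination of replicate fold changes, kanamycin versus none, each normalised to wild type. The library randomised all eight intron nucleotides of the P1ex region, with the intron placed in the knt kanamycin-resistance gene on pET-22b(+) in E. coli BL21(DE3). Six replicate transformations were grown overnight at 37°C or 30°C on LB agar with or without 25 μg/mL kanamycin, plus 100 μg/mL carbenicillin, 50 μM IPTG and 0.2% rhamnose. Pooled colonies were amplicon-sequenced on an Illumina HiSeq 2500.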

In the case of CACCAGCAAUAUUACGAAAU, the “self-splicing fitness (ln)” value (30 °C) is reported as -4.11 ± 0.18 and the “self-splicing fitness (ln)” value (37 °C) is reported as -2.29 ± 0.16.
In the case of CUGUAGCAAUAUUACGGGUC, the “self-splicing fitness (ln)” value (30 °C) is reported as -4.47 ± 0.34 and the “self-splicing fitness (ln)” value (37 °C) is reported as -2.65 ± 0.26.
In the case of AUCUAGCAAUAUUACGUGCU, the “self-splicing fitness (ln)” value (30 °C) is reported as -2.25 ± 0.17 and the “self-splicing fitness (ln)” value (37 °C) is reported as -1.97 ± 0.28.
In the case of AUAGAGCAAUAUUACGUUUC, the “self-splicing fitness (ln)” value (30 °C) is reported as -3.32 ± 0.22 and the “self-splicing fitness (ln)” value (37 °C) is reported as -1.46 ± 0.24.
For GUGAAGCAAUAUUACGGAAC, the “self-splicing fitness (ln)” value (30 °C) was 0.76 ± 0.34.
In the case of GGCCAGCAAUAUUACGUUUG, the “self-splicing fitness (ln)” value (30 °C) is reported as -3.15 ± 0.14 and the “self-splicing fitness (ln)” value (37 °C) is reported as -2.4 ± 0.18.
In the case of CAGGAGCAAUAUUACGUCAA, the “self-splicing fitness (ln)” value (30 °C) is reported as -3.36 ± 0.2 and the “self-splicing fitness (ln)” value (37 °C) is reported as -3.44 ± 0.33.
For CACGAGCAAUAUUACGGAUA, the “self-splicing fitness (ln)” value (30 °C) was -2.98 ± 0.27 and the “self-splicing fitness (ln)” value (37 °C) was -2.06 ± 0.24.
In the case of GGACAGCAAUAUUACGAACC, the “self-splicing fitness (ln)” value (30 °C) is reported as -1.23 ± 0.27 and the “self-splicing fitness (ln)” value (37 °C) is reported as -0.895 ± 0.23.
For AGUGAGCAAUAUUACGGUCC, the “self-splicing fitness (ln)” value (30 °C) was -0.948 ± 0.12 and the “self-splicing fitness (ln)” value (37 °C) was -0.741 ± 0.15.
For UCAGAGCAAUAUUACGUUUG, the “self-splicing fitness (ln)” value (30 °C) was -4.06 ± 0.24 and the “self-splicing fitness (ln)” value (37 °C) was -2.36 ± 0.26.
For UCUAAGCAAUAUUACGUACA, the “self-splicing fitness (ln)” value (30 °C) was -1.57 ± 0.13 and the “self-splicing fitness (ln)” value (37 °C) was -1.13 ± 0.13.
With CCUAAGCAAUAUUACGUAGG the “self-splicing fitness (ln)” value (30 °C) was -3.82 ± 0.15 and the “self-splicing fitness (ln)” value (37 °C) was -2.94 ± 0.22.
For UCAGAGCAAUAUUACGAGAU, the “self-splicing fitness (ln)” value (30 °C) was -3.74 ± 0.33 and the “self-splicing fitness (ln)” value (37 °C) was -2.09 ± 0.37.
In the case of GAAAAGCAAUAUUACGAGUU, the “self-splicing fitness (ln)” value (30 °C) is reported as -1.15 ± 0.073 and the “self-splicing fitness (ln)” value (37 °C) is reported as 0.164 ± 0.094.
For CCCAAGCAAUAUUACGUUGG, the “self-splicing fitness (ln)” value (30 °C) was -3.48 ± 0.14 and the “self-splicing fitness (ln)” value (37 °C) was -2.28 ± 0.13.
With GUGCAGCAAUAUUACGCAUU the “self-splicing fitness (ln)” value (37 °C) was -2.38 ± 0.2.
For UCUUAGCAAUAUUACGACCU, the “self-splicing fitness (ln)” value (30 °C) was -1.75 ± 0.4 and the “self-splicing fitness (ln)” value (37 °C) was 0.256 ± 0.43.
In the case of CUGCAGCAAUAUUACGAUAA, the “self-splicing fitness (ln)” value (30 °C) is reported as -3.39 ± 0.28 and the “self-splicing fitness (ln)” value (37 °C) is reported as -3.1 ± 0.28.
For GACGAGCAAUAUUACGAUCG, the “self-splicing fitness (ln)” value (30 °C) was -2.3 ± 0.23 and the “self-splicing fitness (ln)” value (37 °C) was -2.03 ± 0.19.
For GCGCAGCAAUAUUACGGAGA, the “self-splicing fitness (ln)” value (30 °C) was -4.36 ± 0.42 and the “self-splicing fitness (ln)” value (37 °C) was -1.69 ± 0.19.
With AUGUAGCAAUAUUACGUAGC the “self-splicing fitness (ln)” value (30 °C) was -2.56 ± 0.18 and the “self-splicing fitness (ln)” value (37 °C) was -2.43 ± 0.29.
In the case of GUGCAGCAAUAUUACGCCUA, the “self-splicing fitness (ln)” value (30 °C) is reported as -1.29 ± 0.24 and the “self-splicing fitness (ln)” value (37 °C) is reported as 0.608 ± 0.25.
With CCAGAGCAAUAUUACGAUAC the “self-splicing fitness (ln)” value (30 °C) was -2.7 ± 0.2 and the “self-splicing fitness (ln)” value (37 °C) was -1.71 ± 0.21.
For GGUAAGCAAUAUUACGGGUC, the “self-splicing fitness (ln)” value (30 °C) was -2.39 ± 0.24 and the “self-splicing fitness (ln)” value (37 °C) was -1.81 ± 0.31.
With CAGAAGCAAUAUUACGCGGC the “self-splicing fitness (ln)” value (30 °C) was -0.924 ± 0.15.
For GAAAAGCAAUAUUACGUGUC, the “self-splicing fitness (ln)” value (30 °C) was -3.41 ± 0.13 and the “self-splicing fitness (ln)” value (37 °C) was -2.33 ± 0.14.
With GGACAGCAAUAUUACGGUGU the “self-splicing fitness (ln)” value (30 °C) was -2.84 ± 0.11 and the “self-splicing fitness (ln)” value (37 °C) was -1.89 ± 0.12.
With UAUCAGCAAUAUUACGUGCA the “self-splicing fitness (ln)” value (30 °C) was -0.589 ± 0.054 and the “self-splicing fitness (ln)” value (37 °C) was 0.447 ± 0.078.
In the case of CUUUAGCAAUAUUACGACAC, the “self-splicing fitness (ln)” value (30 °C) is reported as -3.75 ± 0.3 and the “self-splicing fitness (ln)” value (37 °C) is reported as -2.54 ± 0.27.
With GUGGAGCAAUAUUACGUUGU the “self-splicing fitness (ln)” value (30 °C) was -2.93 ± 0.12 and the “self-splicing fitness (ln)” value (37 °C) was -2.53 ± 0.21.
With AGAGAGCAAUAUUACGAGUA the “self-splicing fitness (ln)” value (37 °C) was -2.01 ± 0.45.
For GAUAAGCAAUAUUACGCUCA, the “self-splicing fitness (ln)” value (30 °C) was -1 ± 0.07 and the “self-splicing fitness (ln)” value (37 °C) was 0.0635 ± 0.097.
For GACGAGCAAUAUUACGAACG, the “self-splicing fitness (ln)” value (30 °C) was -0.929 ± 0.34.
In the case of UACGAGCAAUAUUACGUCCG, the “self-splicing fitness (ln)” value (30 °C) is reported as -2.29 ± 0.13 and the “self-splicing fitness (ln)” value (37 °C) is reported as -1.25 ± 0.17.
For GGCAAGCAAUAUUACGGUAG, the “self-splicing fitness (ln)” value (30 °C) was -2.27 ± 0.11 and the “self-splicing fitness (ln)” value (37 °C) was -2.2 ± 0.11.
For AUGAAGCAAUAUUACGCUCC, the “self-splicing fitness (ln)” value (30 °C) was -0.958 ± 0.32 and the “self-splicing fitness (ln)” value (37 °C) was 0.251 ± 0.35.
For CGAAAGCAAUAUUACGCGCA, the “self-splicing fitness (ln)” value (30 °C) was -0.957 ± 0.12 and the “self-splicing fitness (ln)” value (37 °C) was -0.435 ± 0.13.
With CGCCAGCAAUAUUACGUAGU the “self-splicing fitness (ln)” value (30 °C) was -2.67 ± 0.1 and the “self-splicing fitness (ln)” value (37 °C) was -1.18 ± 0.11.
With CAACAGCAAUAUUACGGACG the “self-splicing fitness (ln)” value (30 °C) was -0.191 ± 0.063 and the “self-splicing fitness (ln)” value (37 °C) was 0.505 ± 0.082.
In the case of CAAAAGCAAUAUUACGAGAG, the “self-splicing fitness (ln)” value (30 °C) is reported as -2.79 ± 0.1 and the “self-splicing fitness (ln)” value (37 °C) is reported as -2.34 ± 0.11.
For UGUAAGCAAUAUUACGAGGU, the “self-splicing fitness (ln)” value (30 °C) was -4.29 ± 0.36 and the “self-splicing fitness (ln)” value (37 °C) was -2.63 ± 0.28.
In the case of CUUGAGCAAUAUUACGUAUG, the “self-splicing fitness (ln)” value (30 °C) is reported as -1.21 ± 0.1 and the “self-splicing fitness (ln)” value (37 °C) is reported as -1.35 ± 0.14.
In the case of GGACAGCAAUAUUACGGAAC, the “self-splicing fitness (ln)” value (30 °C) is reported as -0.76 ± 0.1 and the “self-splicing fitness (ln)” value (37 °C) is reported as -0.102 ± 0.11.
In the case of UGAUAGCAAUAUUACGCCCC, the “self-splicing fitness (ln)” value (30 °C) is reported as -2.85 ± 0.43 and the “self-splicing fitness (ln)” value (37 °C) is reported as -0.875 ± 0.38.
In the case of CUUAAGCAAUAUUACGGCCG, the “self-splicing fitness (ln)” value (30 °C) is reported as -0.607 ± 0.093 and the “self-splicing fitness (ln)” value (37 °C) is reported as -0.38 ± 0.13.
With GGAGAGCAAUAUUACGCUGG the “self-splicing fitness (ln)” value (30 °C) was -2.21 ± 0.29 and the “self-splicing fitness (ln)” value (37 °C) was -2.41 ± 0.44.
With GAGGAGCAAUAUUACGCAAU the “self-splicing fitness (ln)” value (30 °C) was -2.36 ± 0.36.
For AGUAAGCAAUAUUACGGAAG, the “self-splicing fitness (ln)” value (30 °C) was -2.55 ± 0.18 and the “self-splicing fitness (ln)” value (37 °C) was -2.2 ± 0.21.
For UUGUAGCAAUAUUACGUAUG, the “self-splicing fitness (ln)” value (30 °C) was -1.99 ± 0.14 and the “self-splicing fitness (ln)” value (37 °C) was -1.42 ± 0.16.
For AGGCAGCAAUAUUACGUCAU, the “self-splicing fitness (ln)” value (30 °C) was -1.87 ± 0.058 and the “self-splicing fitness (ln)” value (37 °C) was -1.1 ± 0.077.
With CGCUAGCAAUAUUACGUGCU the “self-splicing fitness (ln)” value (30 °C) was -1.82 ± 0.16 and the “self-splicing fitness (ln)” value (37 °C) was -1.63 ± 0.18.
With GGCCAGCAAUAUUACGCCGU the “self-splicing fitness (ln)” value (30 °C) was -2.39 ± 0.22 and the “self-splicing fitness (ln)” value (37 °C) was -1.48 ± 0.19.
For CGCGAGCAAUAUUACGCAUG, the “self-splicing fitness (ln)” value (30 °C) was -2.48 ± 0.2 and the “self-splicing fitness (ln)” value (37 °C) was -2.14 ± 0.16.
For CCGAAGCAAUAUUACGUAUG, the “self-splicing fitness (ln)” value (30 °C) was -0.869 ± 0.077 and the “self-splicing fitness (ln)” value (37 °C) was 0.0157 ± 0.1.
With UGCUAGCAAUAUUACGGUCA the “self-splicing fitness (ln)” value (30 °C) was 0.0813 ± 0.11 and the “self-splicing fitness (ln)” value (37 °C) was 0.529 ± 0.13.
For UACUAGCAAUAUUACGAGUC, the “self-splicing fitness (ln)” value (30 °C) was -2.67 ± 0.31 and the “self-splicing fitness (ln)” value (37 °C) was -1.09 ± 0.14.
For ACCGAGCAAUAUUACGAAUG, the “self-splicing fitness (ln)” value (30 °C) was -2.51 ± 0.16 and the “self-splicing fitness (ln)” value (37 °C) was -2.7 ± 0.44.
With CGCCAGCAAUAUUACGAAGG the “self-splicing fitness (ln)” value (30 °C) was -1.36 ± 0.11 and the “self-splicing fitness (ln)” value (37 °C) was -1.9 ± 0.16.
For GACAAGCAAUAUUACGUUGA, the “self-splicing fitness (ln)” value (30 °C) was -2.14 ± 0.09 and the “self-splicing fitness (ln)” value (37 °C) was -1.48 ± 0.12.
For UGAUAGCAAUAUUACGCUAG, the “self-splicing fitness (ln)” value (30 °C) was -1.09 ± 0.081 and the “self-splicing fitness (ln)” value (37 °C) was -0.588 ± 0.078.
With AACCAGCAAUAUUACGCUCG the “self-splicing fitness (ln)” value (30 °C) was -0.795 ± 0.075 and the “self-splicing fitness (ln)” value (37 °C) was 0.274 ± 0.097.
